Results as given in paper PMC6379675, “Structural insights into chromosome attachment to the nuclear envelope by an inner nuclear membrane protein Bqt4 in fission yeast” (Nucleic Acids Research, 2018).
Where a chain is given by its changes, count along the chain named. In names and notes the source's numbering stands. Like-named read-outs stand apart in the source and are kept apart here. Blank lines part the entries; values can stand above or below the binder they belong to. Ends that are not written are not given here.

Columns and labels:
Bqt4NTD^F61A [1] = target: T1, Bqt4NTD^F61A (S. pombe, UniProt O60158 2-140, F61A); assay: ITC
T1 sequence: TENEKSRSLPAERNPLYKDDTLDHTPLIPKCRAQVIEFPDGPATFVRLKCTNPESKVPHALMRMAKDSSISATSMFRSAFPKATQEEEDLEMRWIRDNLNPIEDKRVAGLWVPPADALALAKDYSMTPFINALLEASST

Bqt4NTD^R48E = target: T2, Bqt4NTD^R48E (S. pombe, UniProt O60158 2-140, R48E); assay: ITC
T2 sequence: T1 sequence with R47E, A60F

[2] = target: T3, Bqt4_(2–140), N-terminal domain of Bqt4 (S. pombe, UniProt O60158 2-140); assay: fluorescence polarisation; competition: FITC-labeled Lem2BBM pre-mixed with Bqt4NTD (4°C, 1 h), unlabeled peptides from 10 nM to 200 μM added; 25 mM Tris–HCl pH 8.0, 150 mM NaCl, 10% glycerol; 25°C; conditions: both partners purified
T3 construct: Bqt4, S. pombe inner nuclear membrane protein, residues 2-140; also called Bqt4NTD; Bqt4NTD^WT; source: E. coli BL21(DE3), purified (Ni-NTA, on-beads Ulp1 digestion, Superdex200); not shown: His6, N-terminal, cleaved; SUMO, N-terminal, cleaved
T3 sequence (looked up): T1 sequence with A60F

[3] = target: T3, Bqt4_(2–140), N-terminal domain of Bqt4; assay: ITC; ITC200; peptide (Rap1 479-527 at 1000–1500 μM) titrated into Bqt4 2-140 (100–150 μM), 20°C, 20 mM Tris–HCl pH 8.0, 150 mM NaCl; one binding site model; two independent experiments; conditions: both partners purified
Bqt4_(2–180) [4] = target: T4, Bqt4_(2–180) (S. pombe, UniProt O60158 2-180); assay: ITC
T4 chain: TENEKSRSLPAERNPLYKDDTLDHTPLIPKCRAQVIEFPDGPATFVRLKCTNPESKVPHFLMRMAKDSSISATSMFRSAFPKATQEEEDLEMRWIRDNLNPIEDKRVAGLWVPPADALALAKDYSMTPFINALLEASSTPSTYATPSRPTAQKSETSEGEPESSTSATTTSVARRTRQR

[5] = target: T5, Bqt4_(2–140), N-terminal domain of Bqt4 (S. pombe, UniProt O60158 2-140); assay: ITC
T5 chain: T1 sequence with A60F

[6] = target: T3, Bqt4_(2–140), N-terminal domain of Bqt4; assay: fluorescence polarisation; 100 nM FITC-labeled Lem2BBM with Bqt4NTD from 20 nM to 50 μM; 25 mM Tris–HCl pH 8.0, 150 mM NaCl, 10% glycerol; 25°C; conditions: both partners purified
Bqt4NTD D90R = target: T6, Bqt4NTD D90R (S. pombe, UniProt O60158 2-140, D90 into arginine); assay: ITC
T6 sequence: T1 sequence with A60F, D89R

Bqt4NTD R33A = target: T7, Bqt4NTD R33A (S. pombe, UniProt O60158 2-140, R33A); assay: ITC
T7 sequence: T1 sequence with R32A, A60F

Bqt4NTD^F61A [7] = target: T1, Bqt4NTD^F61A; assay: ITC; remark: listed apart in the source
[8] = target: T5, Bqt4_(2–140), N-terminal domain of Bqt4; assay: ITC
[9] = target: T5, Bqt4_(2–140), N-terminal domain of Bqt4; assay: ITC
[10] = target: T5, Bqt4_(2–140), N-terminal domain of Bqt4; assay: FP; competition with FITC-Lem2BBM
Bqt4_(2–180) [11] = target: T8, Bqt4_(2–180) (S. pombe, UniProt O60158 2-180); assay: ITC; ITC200; peptide (Rap1 479-527 at 1000–1500 μM) titrated into Bqt4 2-140 (100–150 μM), 20°C, 20 mM Tris–HCl pH 8.0, 150 mM NaCl; one binding site model; two independent experiments; conditions: both partners purified
T8 construct: Bqt4, S. pombe, residues 2-180; also called N-terminal region of Bqt4; source: E. coli BL21(DE3), purified (Ni-NTA, on-beads Ulp1 digestion, Superdex200); not shown: His6, N-terminal, cleaved; SUMO, N-terminal, cleaved
T8 sequence (looked up): T4 chain

[12] = target: T5, Bqt4_(2–140), N-terminal domain of Bqt4; assay: ITC

B1: Lem2_(261–279) (peptide, UniProt Q10109 261-279, looked up)
chain: SAEEDDELFQNYVLQQTRK
notes: 3C cleavage leaves extra N-terminal residues; also called Lem2BBM; source: E. coli BL21(DE3), purified (glutathione-Sepharose 4B, on-beads 3C digestion, Superdex75); not shown: GST, N-terminal, cleaved
Kd (Bqt4NTD^F61A [1]): 46 µM
Kd (Bqt4NTD^R48E): 3.2 µM
IC50 [2]: 1.2 µM
Kd [3]: ~0.53 µM

B2: Rap1_(403-541) (protein)
chain: DSMYRSISNPLHLVDSQHLSPLNRKTHFNNPIGQPQFTCLDDHEKTLRETSFRSLDDMSLRKSNSDNIFVKPGEDLEIPLLSDYSDSENISEKSSDDEEAFEKQVTSSYSSPIKVKSQGKSSKGSSGLDVREHEGSDDD
Kd (Bqt4_(2–180) [4]): 5.4 µM
Kd [5]: 4.8 µM

B3: Rap1_(468-541) (protein)
chain: DNIFVKPGEDLEIPLLSDYSDSENISEKSSDDEEAFEKQVTSSYSSPIKVKSQGKSSKGSSGLDVREHEGSDDD
Kd (Bqt4_(2–180) [4]): 7.9 µM
Kd [5]: 5.7 µM

B4: Rap1_(468-519) (protein)
chain: DNIFVKPGEDLEIPLLSDYSDSENISEKSSDDEEAFEKQVTSSYSSPIKVKS
Kd (Bqt4_(2–180) [4]): 10.8 µM
Kd [5]: 6.6 µM

B5: Rap1_(220-606) (protein)
chain: SVSKSENKALVNNKRYSDSYFYFSKMRRISIDVDYVDEDLNLINAYLSQFGKKRSLNELCALLSRRFSNRHTFSEWRALFMHFFPFINSEGVDPAILSDRETSAMLDETSDNEVADIDDQMIERKYLFSASEPNTVKSTNRLIFSERKAYAADDSIDNTPSKVPIVNSLSDPRTNRPFFYSNPDSMYRSISNPLHLVDSQHLSPLNRKTHFNNPIGQPQFTCLDDHEKTLRETSFRSLDDMSLRKSNSDNIFVKPGEDLEIPLLSDYSDSENISEKSSDDEEAFEKQVTSSYSSPIKVKSQGKSSKGSSGLDVREHEGSDDDAEVFVDRSPESFGATKVAHTSLEGNAASHKKVEENMQQPVTKKQKKYRMVNEEAHTGPTIIIPSD
Kd (Bqt4_(2–180) [4]): 12.9 µM
Kd [5]: 13.7 µM

B6: FITC-labeled Lem2BBM (peptide, UniProt Q10109 261-279, looked up)
chain: SAEEDDELFQNYVLQQTRK
modifications: also: FITC label, position not given here
notes: also called fluorescent FITC-labeled Lem2BBM; source: E. coli BL21(DE3), purified; labeled with EZLabel Protein FITC Labeling Kit; not shown: GST, N-terminal, cleaved
Kd [6]: 0.61 µM

B8: Rap1_(468-527) (protein)
chain: DNIFVKPGEDLEIPLLSDYSDSENISEKSSDDEEAFEKQVTSSYSSPIKVKSQGKSSKGS
Kd (Bqt4_(2–180) [4]): 8.7 µM
Kd [5]: 5.8 µM

B9: Rap1_(479–527) (domain or fragment, S. pombe, UniProt Q96TL7 479-527, looked up)
chain: EIPLLSDYSDSENISEKSSDDEEAFEKQVTSSYSSPIKVKSQGKSSKGS
notes: also called Rap1^WT; wild-type Rap1; source: E. coli BL21(DE3), purified (glutathione-Sepharose 4B, on-beads 3C digestion, Superdex75); not shown: GST, N-terminal, cleaved
Kd (Bqt4NTD D90R): 14.4 µM
Kd (Bqt4NTD R33A): 12.3 µM
IC50 [2]: 50.9 µM
Kd (Bqt4NTD^F61A [7]): 909 µM
Kd [8]: 11.4 µM
fold by which the Bqt4-Lem2 interaction is stronger than this pair [3]: 20 fold

Binder: EIPLLSDYSDSENISEKASDDEEAFEKQVTSSYSSPIKVKSQGKSSKGS [Rap1_(479-527) S496A]
Kd [9]: 10.6 µM

Binder: EIPLLSDYSDSENISEKSSDDEEAFEKQVTSSYASPIKVKSQGKSSKGS [Rap1_(479-527) S512A]
Kd [9]: 7.1 µM

Binder: EIPLLSDYSDSENISEKSADDEEAFEKQVTSSYSSPIKVKSQGKSSKGS [Rap1_(479-527) S497A]
Kd [9]: 9.5 µM

Binder: EIPLLSDYSDSENISEKAADDEEAFEKQVTSSYSSPIKVKSQGKSSKGS [Rap1_(479-527) S496A/S497A]
Kd [9]: 8 µM

Binder: SESSSPYSEVDSAEEDDELFQNYVLQQTRK [Lem2_(250-279)]
Kd [12]: 0.34 µM

Further lines, results first:

Kd (Bqt4_(2–180) [4]): 9.7 µM
Kd [5]: 8.3 µM
B7: Rap1_(490-541) (protein)
chain: ENISEKSSDDEEAFEKQVTSSYSSPIKVKSQGKSSKGSSGLDVREHEGSDDD

Kd [8]: 862 µM
Binder: EIPLLSDYSDSENISEKSSDAAEAFEKQVTSSYSSPIKVKSQGKSSKGS (domain or fragment) [Rap1_(479–527) D499A/E500A]

Kd [8]: 138 µM
Binder: EIPLLSDYSDSENISEKSSDDEEAFEKQATSSYSSPIKVKSQGKSSKGS (domain or fragment) [Rap1_(479–527) V507A]

Kd [9]: 7.9 µM
Binder: EIPLLSDYSDSENISEKSSDDEEAFEKQVTSSYSAPIKVKSQGKSSKGS [Rap1_(479-527) S513A]

Kd [8]: 106 µM
Binder: EIPLLSDYSDSENISEKSSDDEEAAEKQVTSSYSSPIKVKSQGKSSKGS (domain or fragment) [Rap1_(479–527) F503A]

Kd [9]: 27.2 µM
Binder: EIPLLSDYSDSENISEKSSDDEEAFEKQVTSSYESPIKVKSQGKSSKGS (domain or fragment) [Rap1_(479–527) S512E]

Kd [9]: 7.3 µM
Binder: EIPLLSDYSDSENISEKSSDDEEAFEKQVTSSYAAPIKVKSQGKSSKGS [Rap1_(479-527) S512A/S513A]

Kd [9]: 2.4 µM
binding result [3]: binds
B10: Rap1_(479–527) S496E (domain or fragment, S. pombe, UniProt Q96TL7 479-527, looked up)
chain: B9 chain with S18E
notes: phosphomimetic; also called Rap1^S496E; source: E. coli BL21(DE3), purified (glutathione-Sepharose 4B, on-beads 3C digestion, Superdex75); not shown: GST, N-terminal, cleaved

Kd [9]: 0.9 µM
IC50 [10]: 6.8 µM
fold increase in binding affinity against wild-type Rap1 [3]: 10 fold
B11: Rap1_(479–527) (S496E/S497E) (domain or fragment, S. pombe, UniProt Q96TL7 479-527, looked up)
chain: B9 chain with S18E, S19E
notes: phosphomimetic; also called Rap1^S496E/S497E; source: E. coli BL21(DE3), purified (glutathione-Sepharose 4B, on-beads 3C digestion, Superdex75); not shown: GST, N-terminal, cleaved

Kd [9]: 115 µM
IC50 [10]: > 200 µM
fold decrease in binding affinity against wild-type Rap1 [3]: 10 fold
B12: Rap1_(479–527) S512E/S513E (domain or fragment, S. pombe, UniProt Q96TL7 479-527, looked up)
chain: B9 chain with S34E, S35E
notes: phosphomimetic; also called Rap1^S512E/S513E; source: E. coli BL21(DE3), purified (glutathione-Sepharose 4B, on-beads 3C digestion, Superdex75); not shown: GST, N-terminal, cleaved

Kd (Bqt4_(2–180) [4]): 15.3 µM
Kd [5]: 14.7 µM
Binder: KSSDDEEAFEKQVTSSYSSPIKVKSQGKSSKGS [Rap1_(495-527)]

Kd (Bqt4_(2–180) [4]): 11 µM
Kd [5]: 11.4 µM
binding result [3]: binds
binding result (Bqt4_(2–180) [11]): binds
B13: Rap1_(490–513), Bqt4-binding motif of Rap1 (peptide, UniProt Q96TL7 490-513, looked up)
chain: ENISEKSSDDEEAFEKQVTSSYSS
notes: 3C cleavage leaves extra N-terminal residues; also called Rap1BBM; source: E. coli BL21(DE3), purified (glutathione-Sepharose 4B, on-beads 3C digestion, Superdex75); not shown: GST, N-terminal, cleaved

Kd (Bqt4NTD^R48E): 262 µM
Kd [3]: 3.7 µM
B14: Sad1 (residues 88–101) (peptide, UniProt Q09825 88-101, looked up)
chain: SDNEEFENVVKNGH
notes: Sad1, S. pombe spindle pole body-associated protein, residues 88-101 (14 residues); 3C cleavage leaves extra N-terminal residues; also called Sad1BBM; Sad1_(88–101); source: E. coli BL21(DE3), purified (glutathione-Sepharose 4B, on-beads 3C digestion, Superdex75); not shown: GST, N-terminal, cleaved
